Measured values reported in the supplement of paper PMC9112550, “Optimization of the antimicrobial peptide Bac7 by deep mutational scanning” (BMC Biology, 2022).

Test system: Escherichia coli TOP10
Experiment: shrunken log2 fold change of peptide-encoding DNA abundance (4.5 h post-induction vs induction); higher = less antimicrobial activity (less host growth inhibition)
Conditions: time post-induction: 4.5 h; library: site-saturation at positions 5, 18, 19, 20
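Further: peptides expressed intracellularly from a pBAD plasmid library in pooled LB shake-flask culture, induced with 0.3% L-arabinose, DNA abundance read by NGS, three biological replicates, DESeq2 with apeglm shrinkage.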

Sequence | shrunken log2 fold change
RRIRVRPPRLPRPRPRPMNIPRP | -0.604
RRIRSRPPRLPRPRPRPPAKPRP | 1.05
RRIRIRPPRLPRPRPRPYMHPRP | -1.32
RRIRARPPRLPRPRPRPYNRPRP | -0.186
RRIRERPPRLPRPRPRPNGRPRP | -0.033
RRIRSRPPRLPRPRPRPRYRPRP | -0.276
RRIRTRPPRLPRPRPRPWTWPRP | -0.0696
RRIRIRPPRLPRPRPRPGQEPRP | -0.00674
RRIRTRPPRLPRPRPRPKIYPRP | -0.191
RRIRNRPPRLPRPRPRPHSCPRP | -0.00198
RRIRIRPPRLPRPRPRPYTWPRP | -0.891
RRIRTRPPRLPRPRPRPNSGPRP | 0.00712
RRIRQRPPRLPRPRPRPAESPRP | 0.0234
RRIRWRPPRLPRPRPRPQFRPRP | -0.0234
RRIRDRPPRLPRPRPRPDMVPRP | 0.00109
RRIRNRPPRLPRPRPRPTHPPRP | -0.235
RRIRRRPPRLPRPRPRPWKQPRP | -0.0204
RRIRYRPPRLPRPRPRPSGTPRP | -0.175
RRIRCRPPRLPRPRPRPTIDPRP | 0.0362
RRIRDRPPRLPRPRPRPMMAPRP | -0.00174
RRIRKRPPRLPRPRPRPHHAPRP | -0.066
RRIRNRPPRLPRPRPRPGRDPRP | 0.366
RRIRPRPPRLPRPRPRPPRVPRP | 0.447
RRIRTRPPRLPRPRPRPKHHPRP | -0.263
RRIRNRPPRLPRPRPRPPIMPRP | -0.549

Sequence | shrunken log2 fold change
RRIRYRPPRLPRPRPRPVCGPRP | -0.463
RRIRCRPPRLPRPRPRPDWFPRP | -0.141
RRIRSRPPRLPRPRPRPCTIPRP | -0.148
RRIRNRPPRLPRPRPRPNIFPRP | -0.29
RRIRWRPPRLPRPRPRPDPFPRP | -0.0639
RRIRSRPPRLPRPRPRPPTWPRP | 0.326
RRIRGRPPRLPRPRPRPQMGPRP | 0.339
RRIRVRPPRLPRPRPRPDGCPRP | 0.101
RRIRYRPPRLPRPRPRPRGNPRP | -0.0138
RRIRMRPPRLPRPRPRPVAMPRP | 0.57
RRIRGRPPRLPRPRPRPGCFPRP | 1.1
RRIRMRPPRLPRPRPRPDCLPRP | 1.54
RRIRGRPPRLPRPRPRPPNQPRP | 0.535
RRIRARPPRLPRPRPRPMKHPRP | -0.00244
RRIRLRPPRLPRPRPRPFFGPRP | 0.246
RRIRKRPPRLPRPRPRPAFNPRP | -0.169
RRIRLRPPRLPRPRPRPRKLPRP | -0.0264
RRIRMRPPRLPRPRPRPNHEPRP | 0.0645
RRIRSRPPRLPRPRPRPMMLPRP | 0.15
RRIRTRPPRLPRPRPRPKHLPRP | -0.233
RRIRRRPPRLPRPRPRPVKLPRP | -0.0474
RRIRQRPPRLPRPRPRPEGHPRP | 0.00489
RRIRDRPPRLPRPRPRPFVVPRP | -0.266
RRIRTRPPRLPRPRPRPMRRPRP | 0.00555
RRIRGRPPRLPRPRPRPDTFPRP | 0.43

Sequence | shrunken log2 fold change
RRIRDRPPRLPRPRPRPEVFPRP | 0.443
RRIRFRPPRLPRPRPRPMGYPRP | -0.226
RRIRKRPPRLPRPRPRPRFCPRP | 0.554
RRIRDRPPRLPRPRPRPNVVPRP | -0.0354
RRIRIRPPRLPRPRPRPYEDPRP | -0.00133
RRIRWRPPRLPRPRPRPAACPRP | 0.0948
RRIRLRPPRLPRPRPRPDMIPRP | -0.0232
RRIRNRPPRLPRPRPRPCPRPRP | -0.0673
RRIRSRPPRLPRPRPRPRVWPRP | 0.536
RRIRPRPPRLPRPRPRPFIRPRP | 0.00477
RRIRKRPPRLPRPRPRPMFKPRP | -0.0779
RRIRPRPPRLPRPRPRPCEHPRP | 0.099
RRIRFRPPRLPRPRPRPEVNPRP | 0.0557
RRIRHRPPRLPRPRPRPFCTPRP | -0.294
RRIRQRPPRLPRPRPRPWGWPRP | 0.546
RRIRNRPPRLPRPRPRPHACPRP | 0.0169
RRIRYRPPRLPRPRPRPPMFPRP | -0.806
RRIRWRPPRLPRPRPRPNDAPRP | 0.0398
RRIRWRPPRLPRPRPRPAQNPRP | 0.437
RRIRQRPPRLPRPRPRPKPYPRP | -0.074
RRIRMRPPRLPRPRPRPKPIPRP | 0.32
RRIRARPPRLPRPRPRPLHEPRP | 0.314
RRIRARPPRLPRPRPRPLFTPRP | 0.0936
RRIRNRPPRLPRPRPRPYNQPRP | -0.597
RRIRDRPPRLPRPRPRPNWDPRP | 0.0503

Sequence | shrunken log2 fold change
RRIRIRPPRLPRPRPRPMWDPRP | 0.205
RRIRFRPPRLPRPRPRPRVFPRP | 0.232
RRIRTRPPRLPRPRPRPHCMPRP | -0.153
RRIRYRPPRLPRPRPRPHVRPRP | -0.202
RRIRWRPPRLPRPRPRPRPYPRP | 0.0357
RRIRTRPPRLPRPRPRPSVTPRP | -0.0217
RRIRIRPPRLPRPRPRPAIHPRP | -0.475
RRIRDRPPRLPRPRPRPLAGPRP | 0.121
RRIRSRPPRLPRPRPRPAARPRP | 0.247
RRIRLRPPRLPRPRPRPNVNPRP | -0.28
RRIRLRPPRLPRPRPRPNFKPRP | -0.206
RRIRGRPPRLPRPRPRPAKRPRP | 0.504
RRIRLRPPRLPRPRPRPCDGPRP | -0.181
RRIRIRPPRLPRPRPRPQNMPRP | -0.235
RRIRIRPPRLPRPRPRPKTAPRP | -0.143
RRIRNRPPRLPRPRPRPSFWPRP | -0.056
RRIRRRPPRLPRPRPRPTRLPRP | 0.612
RRIRERPPRLPRPRPRPCPAPRP | -0.224
RRIRLRPPRLPRPRPRPQLWPRP | -0.195
RRIRNRPPRLPRPRPRPRHVPRP | -0.119
RRIRNRPPRLPRPRPRPWQSPRP | -0.0702
RRIRPRPPRLPRPRPRPDKFPRP | -0.233
RRIRHRPPRLPRPRPRPISEPRP | -0.0415
RRIRSRPPRLPRPRPRPWLGPRP | -0.092
RRIRRRPPRLPRPRPRPSWCPRP | -0.154

Sequence | shrunken log2 fold change
RRIRQRPPRLPRPRPRPPYQPRP | -0.216
RRIRIRPPRLPRPRPRPYPMPRP | -0.0519
RRIRKRPPRLPRPRPRPPFIPRP | -0.00551
RRIRNRPPRLPRPRPRPAGSPRP | 0.086
RRIRSRPPRLPRPRPRPCCFPRP | -0.0695
RRIRFRPPRLPRPRPRPTLAPRP | 0.361
RRIRIRPPRLPRPRPRPQKRPRP | -0.143
RRIRKRPPRLPRPRPRPTIQPRP | -0.0129
RRIRWRPPRLPRPRPRPVKIPRP | -0.142
RRIRKRPPRLPRPRPRPVSYPRP | -0.227
RRIRLRPPRLPRPRPRPCARPRP | 0.0322
RRIRIRPPRLPRPRPRPKLLPRP | 0.0419
RRIRKRPPRLPRPRPRPPQNPRP | 0.723
RRIRERPPRLPRPRPRPGWVPRP | 0.381
RRIRDRPPRLPRPRPRPRVDPRP | 0.325
RRIRTRPPRLPRPRPRPGFNPRP | -0.234
RRIRLRPPRLPRPRPRPERHPRP | 0.27
RRIRCRPPRLPRPRPRPYWKPRP | -0.737
RRIRCRPPRLPRPRPRPNMDPRP | -0.431
RRIRVRPPRLPRPRPRPCYDPRP | 0.0557
RRIRKRPPRLPRPRPRPVNTPRP | -0.207
RRIRERPPRLPRPRPRPAMIPRP | -0.0554
RRIRMRPPRLPRPRPRPEWDPRP | 3.48
RRIRTRPPRLPRPRPRPCNTPRP | -0.21
RRIRGRPPRLPRPRPRPQWDPRP | 0.534

Sequence | shrunken log2 fold change
RRIRGRPPRLPRPRPRPVVYPRP | 0.268
RRIRMRPPRLPRPRPRPIINPRP | -0.0492
RRIRERPPRLPRPRPRPEEGPRP | -0.007
RRIRCRPPRLPRPRPRPLFHPRP | -0.429
RRIRSRPPRLPRPRPRPWYCPRP | 0.017
RRIRHRPPRLPRPRPRPYLHPRP | -0.175
RRIRWRPPRLPRPRPRPWPYPRP | -0.0146
RRIRRRPPRLPRPRPRPYGYPRP | 0.0179
RRIRWRPPRLPRPRPRPKQTPRP | 0.578
RRIRQRPPRLPRPRPRPHKVPRP | -0.481
RRIRTRPPRLPRPRPRPHAGPRP | -0.0835
RRIRIRPPRLPRPRPRPYSYPRP | -0.0485
RRIRARPPRLPRPRPRPTCSPRP | 0.483
RRIRHRPPRLPRPRPRPWHFPRP | -0.0331
RRIRSRPPRLPRPRPRPVSTPRP | -0.187
RRIRFRPPRLPRPRPRPTDCPRP | -0.0151
RRIRKRPPRLPRPRPRPTYNPRP | -0.0201
RRIRMRPPRLPRPRPRPCLMPRP | 0.0359
RRIRNRPPRLPRPRPRPASWPRP | 0.369
RRIRGRPPRLPRPRPRPTQNPRP | 0.972
RRIRVRPPRLPRPRPRPIHSPRP | -0.252
RRIRLRPPRLPRPRPRPLTVPRP | 0.127
RRIRWRPPRLPRPRPRPMHAPRP | 0.542
RRIRIRPPRLPRPRPRPEYVPRP | -0.196
RRIRNRPPRLPRPRPRPDTDPRP | 0.0251
